# Laboratory results taken from paper PMC4771712, “Deciphering Mode of Action of Functionally Important Regions in the Intrinsically Disordered Paxillin (Residues 1-313) Using Its Interaction with FAT (Focal Adhesion Targeting Domain of Focal Adhesion Kinase)” (PLoS ONE, 2016).
# T1: GST fusion of the FAT (focal adhesion targeting) domain of focal adhesion kinase, human FAK 892-1052 (human, UniProt Q05397 892-1052)
# T1 construct: focal adhesion kinase (FAK), human, FAT domain, residues 892-1052; Cloned into pGEX4T1; For the pull-down provided by Dr. M. K. Hoellerer; for bio-layer interferometry the same construct was synthesised (GeneArt) and made by the same procedure; also called GST-FAT; GST labeled FAT; source: E. coli BL21 (DE3), purified using GST-4B beads
# T1 sequence (looked up): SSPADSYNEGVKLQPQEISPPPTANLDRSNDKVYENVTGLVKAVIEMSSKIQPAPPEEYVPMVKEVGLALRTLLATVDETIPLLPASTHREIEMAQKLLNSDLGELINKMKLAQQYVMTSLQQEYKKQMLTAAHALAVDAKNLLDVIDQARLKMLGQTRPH
# Experiments:
# [1] = target: T1, GST fusion of the FAT (focal adhesion …); assay: BLI; GST-FAT immobilised on Anti-GST biosensors (20 μg/ml in PBS), paxillin constructs as analytes in PBS with Tween 20 (0.05%) and BSA (1%), Octet RED96, global fitting (B2 1:1 model, C35_1 to C35_3 2:1 model); details: both partners purified
# [2] = target: T1, GST fusion of the FAT (focal adhesion …); assay: as above; details: both partners purified; remark: listed apart in the source
Kd [1] [µM],koff [1] [s⁻¹],kon [1] [M⁻¹ s⁻¹],stoichiometry N [2] [construct per FAT],Binder
16.9,0.164,9710,2,"paxillin Construct C35_2 (79-189) (domain or fragment, human, UniProt P49023-2 79-189, looked up, human paxillin residues 79-189; Cloned into pET28a; source: E. coli BL21DE3, purified) QQPQSSSPVYGSSAKTSSVSNPQDSVGSPCSRVGEEEHVYSFPNKQKSAEPSPTVMSTSLGSNLSELDRLLLELNAVQHNPPGFPADEANSSPPLPGALSPLYGVPETNSP"
0.0361,0.00171,47500,1,"paxillin construct B2, expressed in E. coli for bio-layer interferometry (domain or fragment) SSEALNGTILDPLDQWQPSSSRFIHQQPQSSSPVYGSSAKTSSVSNPQDSVGSPCSRVGEEEHVYSFPNKQKSAEPSPTVMSTSLGSNLSELDRLLLELNAVQHNPPGFPADEANSSPPLPGALSPLYGVPETNSPLGGKAGPLTKEKPKRNGGRGLEDVRPSVESLLDELESSVPSPVPAITVNQGEMSSPQRVTSTQQQTRISASSATRELDELMASLSDFKFM"
5.39,0.121,22500,2,"paxillin Construct C35_1 (54-189) (domain or fragment, human, UniProt P49023-2 54-189, looked up, human paxillin residues 54-189; Cloned into pET28a; source: E. coli BL21DE3, purified) SSEALNGTILDPLDQWQPSSSRFIHQQPQSSSPVYGSSAKTSSVSNPQDSVGSPCSRVGEEEHVYSFPNKQKSAEPSPTVMSTSLGSNLSELDRLLLELNAVQHNPPGFPADEANSSPPLPGALSPLYGVPETNSP"
1.45,0.106,72900,2,"paxillin Construct C35_3 (105-189) (domain or fragment, human, UniProt P49023-2 105-189, looked up, human paxillin residues 105-189; Cloned into pET28a; source: E. coli BL21DE3, purified) GSPCSRVGEEEHVYSFPNKQKSAEPSPTVMSTSLGSNLSELDRLLLELNAVQHNPPGFPADEANSSPPLPGALSPLYGVPETNSP"
